Results published in publication PMC9795039, “Kindlin2 enables EphB/ephrinB bi-directional signaling to support vascular development” (Life Science Alliance, 2022).

B1: his-tagged human full-length kindlin2 [human] / his/Avi-tagged cytoplasmic tail of ephrinB2 WT [modified: biotinylated; biotinylated] [not stated] (parent complex)
chain 1: MALDGIRMPDGCYADGTWELSVHVTDLNRDVTLRVTGEVHIGGVMLKLVEKLDVKKDWSDHALWWEKKRTWLLKTHWTLDKYGIQADAKLQFTPQHKLLRLQLPNMKYVKVKVNFSDRVFKAVSDICKTFNIRHPEELSLLKKPRDPTKKKKKKLDDQSEDEALELEGPLITPGSGSIYSSPGLYSKTMTPTYDAHDGSPLSPTSAWFGDSALSEGNPGILAVSQPITSPEILAKMFKPQALLDKAKINQGWLDSSRSLMEQDVKENEALLLRFKYYSFFDLNPKYDAIRINQLYEQAKWAILLEEIECTEEEMMMFAALQYHINKLSIMTSENHLNNSDKEVDEVDAALSDLEITLEGGKTSTILGDITSIPELADYIKVFKPKKLTLKGYKQYWCTFKDTSISCYKSKEESSGTPAHQMNLRGCEVTPDVNISGQKFNIKLLIPVAEGMNEIWLRCDNEKQYAHWMAACRLASKGKTMADSSYNLEVQNILSFLKMQHLNPDPQLIPEQITTDITPECLVSPRYLKKYKNKQITARILEAHQNVAQMSLIEAKMRFIQAWQSLPEFGITHFIARFQGGKKEELIGIAYNRLIRMDASTGDAIKTWRFSNMKQWNVNWEIKMVTVEFADEVRLSFICTEVDCKVVHEFIGGYIFLSTRAKDQNESLDEEMFYKLTSGWV
chain 2: KYRRRHRKHSPQHTTTLSLSTLATPKRSGNNNGSEPSDIIIPLRTADSVFCPHYEKVSGDYGHPVYIVQEMPPQSPANIYYKV

Variants of: B1
Assay: in vitro binding assay (pulldown on NeutrAvidin beads, Western blot densitometry); purified kindlin2; n = 3; read off a plot

Row | percent of parent | Variant
1 | ~61 % WT | chain 2 Y81A
2 | ~107 % WT | chain 2 N78A
3 | ~105 % WT | chain 2 S75A
4 | ~14 % WT | chain 2 N78A, chain 2 I79A, chain 2 Y80A, chain 2 Y81A
5 | ~36 % WT | chain 2 N78A, chain 2 Y81A
